# Measured values taken from patent US9708383 (Novo Nordisk, dated 2017).
# *1 amine or outer side, *2 acyl side, *3 side chain or, on linkers, in order; H or OH if unused. Where no end group is shown, it is not given here. Side-chain parts run from the residue outwards. [ ]: non-standard residue; d: D form. The star is where a group is joined. 9‑(4-carboxyphenoxy)nonanoyl = O=C(O)c1ccc(OCCCCCCCCC(=O)*)cc1; Decanoyl(10-(4-HOOC-PhO)) = O=C(O)c1ccc(OCCCCCCCCCC(=O)*)cc1; γGlu = O=C(O)[C@H](CCC(=O)[*:2])N[*:1]; Desaminohistidyl = O=C(CCc1c[nH]cn1)*; Hexanoyl(6-Ph) = O=C(CCCCCc1ccccc1)*; C12 diacid = O=C(O)CCCCCCCCCCC(=O)*; 13‑carboxytridecanoyl = C14 diacid; AEEA = NCCOCCOCC(=O)O; Aib = CC(C)(N)C(=O)O; Aoc = NCCCCCCCC(=O)O
# Target: T1, human GLP-1 receptor (human, UniProt P43220 24-463)
# T1 construct: whole, on cells; Used as purified membranes of the transfected hamster cells, not whole cells; also called hGLP-1
# Test: SPA, 2.0% vs 0.005% HSA
row,Binder,ratio IC50 high HSA/IC50 low HSA
1,"HAEGTFTSDVSK([γGlu-AEEA-AEEA-Decanoyl(10-(4-HOOC-PhO))])YLEEQAARK([γGlu-AEEA-AEEA-Decanoyl(10-(4-HOOC-PhO))])FIAHLVG [GLP-1 derivative of Example 49: [Lys18,Glu22,Arg26,Lys27,His31,Gly34]-GLP-1-(7-34)-peptide]",> 1
2,"HAEGTFTSDVSK([AEEA-AEEA-γGlu-9‑(4-carboxyphenoxy)nonanoyl])YLEEQAARK([AEEA-AEEA-γGlu-9‑(4-carboxyphenoxy)nonanoyl])FIAHLVG [GLP-1 derivative of Example 64: [Lys18,Glu22,Arg26,Lys27,His31,Gly34]-GLP-1-(7-34)-peptide]",> 1
3,"HAEGTFTSDVSK([AEEA-AEEA-γGlu-13‑carboxytridecanoyl])YLEEQAVRLFIK([AEEA-AEEA-γGlu-13‑carboxytridecanoyl])WLVG [GLP-1 derivative of Example 53: [Lys18,Glu22,Val25,Arg26,Leu27,Lys30,Gly34]-GLP-1-(7-34)-peptide]",> 1
4,"HAEGTFTSDVSK([AEEA-AEEA-γGlu-C12 diacid])YLEEQAVREFIAHLVK([AEEA-AEEA-γGlu-C12 diacid]) [GLP-1 derivative of Example 66: [Lys18,Glu22,Val25,Arg26,His31]-GLP-1-(7-34)-peptide]",> 1
5,"HAEGTFTSDVSK([γGlu-AEEA-γGlu-13‑carboxytridecanoyl])YLEEQAARK([γGlu-AEEA-γGlu-13‑carboxytridecanoyl])FIAHLVG [GLP-1 derivative of Example 59: [Lys18,Glu22,Arg26,Lys27,His31,Gly34]-GLP-1-(7-34)-peptide]",> 1
6,"HAEGTFTSDVSK([AEEA-AEEA-γGlu-13‑carboxytridecanoyl])YLEEQAVREFIK([AEEA-AEEA-γGlu-13‑carboxytridecanoyl])WLVG [GLP-1 derivative of Example 50: [Lys18,Glu22,Val25,Arg26,Lys30,Gly34]-GLP-1-(7-34)-peptide]",> 1
7,"HAEGTFTSDVSK([AEEA-AEEA-γGlu-13‑carboxytridecanoyl])YLEEQAVREFIK([AEEA-AEEA-γGlu-13‑carboxytridecanoyl])HLVG [GLP-1 derivative of Example 52: [Lys18,Glu22,Val25,Arg26,Lys30,His31,Gly34]-GLP-1-(7-34)-peptide]",> 1
8,"H[Aib]EGTFTSDVSK([AEEA-AEEA-γGlu-Aoc-γGlu-Hexanoyl(6-Ph)])YLEEQAAK([AEEA-AEEA-γGlu-Aoc-γGlu-Hexanoyl(6-Ph)])EFIAWLVQGRG [GLP-1 derivative of Example 127: [Aib8,Lys18,Glu22,Gln34]-GLP-1-(7-37)-peptide]",> 1
9,"[Desaminohistidyl]AEGTFTSDVSK([AEEA-AEEA-γGlu-13‑carboxytridecanoyl])YLEEQAVREFIAK([AEEA-AEEA-γGlu-13‑carboxytridecanoyl])LVG [GLP-1 derivative of Example 12: [Imp7,Lys18,Glu22,Val25,Arg26,Lys31,Gly34]-GLP-1-(7-34)-peptide]",> 1
10,"HAEGTFTSDVSK([γGlu-AEEA-AEEA-13‑carboxytridecanoyl])YLEEQAAREFIAK([γGlu-AEEA-AEEA-13‑carboxytridecanoyl])LVRGRG [GLP-1 derivative of Example 116: [Lys18,Glu22,Arg26,Lys31,Arg34]-GLP-1-(7-37)-peptide]",> 1

# Target: T1, human GLP-1 receptor
# Test: SPA, displacement of 125I-GLP-1(7-36)NH2, 0.005% HSA
row,Binder,IC50 [nM]
1,"HAEGTFTSDVSK([γGlu-AEEA-AEEA-Decanoyl(10-(4-HOOC-PhO))])YLEEQAARK([γGlu-AEEA-AEEA-Decanoyl(10-(4-HOOC-PhO))])FIAHLVG [GLP-1 derivative of Example 49: [Lys18,Glu22,Arg26,Lys27,His31,Gly34]-GLP-1-(7-34)-peptide]",< 1000
2,"HAEGTFTSDVSK([AEEA-AEEA-γGlu-9‑(4-carboxyphenoxy)nonanoyl])YLEEQAARK([AEEA-AEEA-γGlu-9‑(4-carboxyphenoxy)nonanoyl])FIAHLVG [GLP-1 derivative of Example 64: [Lys18,Glu22,Arg26,Lys27,His31,Gly34]-GLP-1-(7-34)-peptide]",< 1000
3,"HAEGTFTSDVSK([AEEA-AEEA-γGlu-13‑carboxytridecanoyl])YLEEQAVRLFIK([AEEA-AEEA-γGlu-13‑carboxytridecanoyl])WLVG [GLP-1 derivative of Example 53: [Lys18,Glu22,Val25,Arg26,Leu27,Lys30,Gly34]-GLP-1-(7-34)-peptide]",< 1000
4,"HAEGTFTSDVSK([AEEA-AEEA-γGlu-C12 diacid])YLEEQAVREFIAHLVK([AEEA-AEEA-γGlu-C12 diacid]) [GLP-1 derivative of Example 66: [Lys18,Glu22,Val25,Arg26,His31]-GLP-1-(7-34)-peptide]",< 1000
5,"HAEGTFTSDVSK([γGlu-AEEA-γGlu-13‑carboxytridecanoyl])YLEEQAARK([γGlu-AEEA-γGlu-13‑carboxytridecanoyl])FIAHLVG [GLP-1 derivative of Example 59: [Lys18,Glu22,Arg26,Lys27,His31,Gly34]-GLP-1-(7-34)-peptide]",< 1000
6,"HAEGTFTSDVSK([AEEA-AEEA-γGlu-13‑carboxytridecanoyl])YLEEQAVREFIK([AEEA-AEEA-γGlu-13‑carboxytridecanoyl])WLVG [GLP-1 derivative of Example 50: [Lys18,Glu22,Val25,Arg26,Lys30,Gly34]-GLP-1-(7-34)-peptide]",< 1000
7,"HAEGTFTSDVSK([AEEA-AEEA-γGlu-13‑carboxytridecanoyl])YLEEQAVREFIK([AEEA-AEEA-γGlu-13‑carboxytridecanoyl])HLVG [GLP-1 derivative of Example 52: [Lys18,Glu22,Val25,Arg26,Lys30,His31,Gly34]-GLP-1-(7-34)-peptide]",< 1000
8,"H[Aib]EGTFTSDVSK([AEEA-AEEA-γGlu-Aoc-γGlu-Hexanoyl(6-Ph)])YLEEQAAK([AEEA-AEEA-γGlu-Aoc-γGlu-Hexanoyl(6-Ph)])EFIAWLVQGRG [GLP-1 derivative of Example 127: [Aib8,Lys18,Glu22,Gln34]-GLP-1-(7-37)-peptide]",< 1000
9,"[Desaminohistidyl]AEGTFTSDVSK([AEEA-AEEA-γGlu-13‑carboxytridecanoyl])YLEEQAVREFIAK([AEEA-AEEA-γGlu-13‑carboxytridecanoyl])LVG [GLP-1 derivative of Example 12: [Imp7,Lys18,Glu22,Val25,Arg26,Lys31,Gly34]-GLP-1-(7-34)-peptide]",< 1000
10,"HAEGTFTSDVSK([γGlu-AEEA-AEEA-13‑carboxytridecanoyl])YLEEQAAREFIAK([γGlu-AEEA-AEEA-13‑carboxytridecanoyl])LVRGRG [GLP-1 derivative of Example 116: [Lys18,Glu22,Arg26,Lys31,Arg34]-GLP-1-(7-37)-peptide]",< 1000
